Measured values from IntAct's records for PubMed 35512704.

B1: Speckle-type POZ protein (Homo sapiens), O43791 (parent)
chain: MSRVPSPPPPAEMSSGPVAESWCYTQIKVVKFSYMWTINNFSFCREEMGEVIKSSTFSSGANDKLKWCLRVNPKGLDEESKDYLSLYLLLVSCPKSEVRAKFKFSILNAKGEETKAMESQRAYRFVQGKDWGFKKFIRRDFLLDEANGLLPDDKLTLFCEVSVVQDSVNISGQNTMNMVKVPECRLADELGGLWENSRFTDCCLCVAGQEFQAHKAILAARSPVFSAMFEHEMEESKKNRVEINDVEPEVFKEMMCFIYTGKAPNLDKMADDLLAAADKYALERLKVMCEDALCSNLSVENAAEILILADLHSADQLKTQAVDFINYHASDVLETSGWKSMVVSHPHLVAEAYRSLASAQCPFLGPPRKRLKQS

Variants of: B1
Details: with fgfr4_human FGFR4, P22455

| Variant | effect of a mutation on the interaction |
| --- | --- |
| F102C | with no effect |

Variants of: B1
Details: with fumh_human FH

| Variant | effect of a mutation on the interaction |
| --- | --- |
| F102C | with no effect |

Variants of: B1
Details: with fzr1_human FZR1, Q9UM11
fzr1_human FZR1, Q9UM11, sequence (Q9UM11 whole entry): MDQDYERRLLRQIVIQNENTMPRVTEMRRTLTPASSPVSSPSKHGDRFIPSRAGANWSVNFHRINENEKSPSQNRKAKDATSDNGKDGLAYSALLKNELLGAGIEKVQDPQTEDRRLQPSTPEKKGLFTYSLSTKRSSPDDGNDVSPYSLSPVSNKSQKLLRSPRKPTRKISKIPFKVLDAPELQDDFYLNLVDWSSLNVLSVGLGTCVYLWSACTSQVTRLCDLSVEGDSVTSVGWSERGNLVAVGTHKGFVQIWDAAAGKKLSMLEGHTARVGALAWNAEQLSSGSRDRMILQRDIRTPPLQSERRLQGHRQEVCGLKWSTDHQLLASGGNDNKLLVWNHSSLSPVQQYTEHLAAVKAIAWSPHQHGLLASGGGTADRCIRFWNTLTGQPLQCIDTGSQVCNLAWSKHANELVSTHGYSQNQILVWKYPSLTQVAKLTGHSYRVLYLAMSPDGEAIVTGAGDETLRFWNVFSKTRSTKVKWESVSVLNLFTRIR

| Variant | effect of a mutation on the interaction |
| --- | --- |
| F102C | with no effect |

Variants of: B1
Details: with gbra6_human GABRA6, Q16445

| Variant | effect of a mutation on the interaction |
| --- | --- |
| F102C | with no effect |

Variants of: B1
Details: with gata1_human GATA1, P15976
gata1_human GATA1, P15976, sequence (P15976 whole entry): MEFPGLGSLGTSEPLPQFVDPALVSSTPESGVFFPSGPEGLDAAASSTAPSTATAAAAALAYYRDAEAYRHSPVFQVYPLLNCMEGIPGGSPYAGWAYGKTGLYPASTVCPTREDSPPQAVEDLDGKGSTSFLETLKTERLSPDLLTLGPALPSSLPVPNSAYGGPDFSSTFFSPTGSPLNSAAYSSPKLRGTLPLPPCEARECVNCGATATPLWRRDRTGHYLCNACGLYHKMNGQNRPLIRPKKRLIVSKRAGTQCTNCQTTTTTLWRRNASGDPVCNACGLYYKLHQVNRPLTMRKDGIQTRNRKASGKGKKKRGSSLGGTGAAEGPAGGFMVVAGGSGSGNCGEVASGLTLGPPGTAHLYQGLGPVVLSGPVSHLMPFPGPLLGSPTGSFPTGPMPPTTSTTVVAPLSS

| Variant | effect of a mutation on the interaction |
| --- | --- |
| F102C | with no effect |

Variants of: B1
Details: with p66b_human GATAD2B

| Variant | effect of a mutation on the interaction |
| --- | --- |
| F102C | with no effect |

Variants of: B1
Details: with gna11_human GNA11, P29992
gna11_human GNA11, P29992, sequence (P29992 whole entry): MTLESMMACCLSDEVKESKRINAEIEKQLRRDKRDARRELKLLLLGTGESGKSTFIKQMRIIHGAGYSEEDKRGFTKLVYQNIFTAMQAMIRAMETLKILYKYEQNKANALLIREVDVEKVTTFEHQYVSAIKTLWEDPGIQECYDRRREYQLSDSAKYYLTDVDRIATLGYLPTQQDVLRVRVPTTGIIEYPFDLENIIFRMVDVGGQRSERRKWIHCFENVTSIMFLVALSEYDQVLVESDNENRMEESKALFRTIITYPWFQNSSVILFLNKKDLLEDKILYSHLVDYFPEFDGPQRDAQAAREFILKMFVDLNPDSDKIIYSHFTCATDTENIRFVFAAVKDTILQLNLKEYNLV

| Variant | effect of a mutation on the interaction |
| --- | --- |
| F102C | with no effect |

Variants of: B1
Details: with gna13_human GNA13, Q14344

| Variant | effect of a mutation on the interaction |
| --- | --- |
| F102C | with no effect |

Variants of: B1
Details: with gnaq_human GNAQ

| Variant | effect of a mutation on the interaction |
| --- | --- |
| F102C | with no effect |

Variants of: B1
Details: with grm1_human GRM1, Q13255

| Variant | effect of a mutation on the interaction |
| --- | --- |
| F102C | with no effect |

Variants of: B1
Details: with grm3_human GRM3, Q14832

| Variant | effect of a mutation on the interaction |
| --- | --- |
| F102C | with no effect |

Variants of: B1
Details: with gtpb4_human GTPBP4, Q9BZE4

| Variant | effect of a mutation on the interaction |
| --- | --- |
| F102C | with no effect |

Variants of: B1
Details: with h33_human H3-3A

| Variant | effect of a mutation on the interaction |
| --- | --- |
| F102C | with no effect |

Variants of: B1
Details: with hdac1_human HDAC1, Q13547

| Variant | effect of a mutation on the interaction |
| --- | --- |
| F102C | with no effect |

Variants of: B1
Details: with hdac3_human HDAC3, O15379

| Variant | effect of a mutation on the interaction |
| --- | --- |
| F102C | with no effect |

Variants of: B1
Details: with hgf_human HGF

| Variant | effect of a mutation on the interaction |
| --- | --- |
| F102C | with no effect |

Variants of: B1
Details: with h31_human H3C1, P68431

| Variant | effect of a mutation on the interaction |
| --- | --- |
| F102C | with no effect |

Variants of: B1
Details: with hlab_human HLA-B

| Variant | effect of a mutation on the interaction |
| --- | --- |
| F102C | with no effect |

Variants of: B1
Details: with il7ra_human IL7R

| Variant | effect of a mutation on the interaction |
| --- | --- |
| F102C | with no effect |

Variants of: B1
Details: with int12_human INTS12, Q96CB8

| Variant | effect of a mutation on the interaction |
| --- | --- |
| F102C | with no effect |

Variants of: B1
Details: with jak1_human JAK1, P23458

| Variant | effect of a mutation on the interaction |
| --- | --- |
| F102C | with no effect |

Variants of: B1
Details: with jak3_human JAK3, P52333

| Variant | effect of a mutation on the interaction |
| --- | --- |
| F102C | with no effect |

Variants of: B1
Details: with kat2a_human KAT2A

| Variant | effect of a mutation on the interaction |
| --- | --- |
| F102C | with no effect |

Variants of: B1
Details: with kdm5a_human KDM5A

| Variant | effect of a mutation on the interaction |
| --- | --- |
| F102C | with no effect |

Variants of: B1
Details: with kdm5c_human KDM5C

| Variant | effect of a mutation on the interaction |
| --- | --- |
| F102C | with no effect |

Variants of: B1
Details: with kdm6a_human KDM6A

| Variant | effect of a mutation on the interaction |
| --- | --- |
| F102C | with no effect |

Variants of: B1
Details: with vgfr2_human KDR

| Variant | effect of a mutation on the interaction |
| --- | --- |
| F102C | with no effect |

Variants of: B1
Details: with lims1_human LIMS1, P48059
lims1_human LIMS1, P48059, sequence (P48059 whole entry): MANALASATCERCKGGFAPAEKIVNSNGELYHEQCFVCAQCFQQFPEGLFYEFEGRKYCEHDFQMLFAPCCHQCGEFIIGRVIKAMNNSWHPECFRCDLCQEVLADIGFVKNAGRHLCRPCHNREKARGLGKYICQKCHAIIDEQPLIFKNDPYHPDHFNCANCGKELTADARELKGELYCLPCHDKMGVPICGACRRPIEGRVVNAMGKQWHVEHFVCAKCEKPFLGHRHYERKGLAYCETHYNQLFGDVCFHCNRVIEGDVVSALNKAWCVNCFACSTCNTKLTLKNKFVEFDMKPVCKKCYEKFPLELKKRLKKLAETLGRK

| Variant | effect of a mutation on the interaction |
| --- | --- |
| F102C | with no effect |

Variants of: B1
Details: with maga6_human MAGEA6, P43360
maga6_human MAGEA6, P43360, sequence (P43360 whole entry): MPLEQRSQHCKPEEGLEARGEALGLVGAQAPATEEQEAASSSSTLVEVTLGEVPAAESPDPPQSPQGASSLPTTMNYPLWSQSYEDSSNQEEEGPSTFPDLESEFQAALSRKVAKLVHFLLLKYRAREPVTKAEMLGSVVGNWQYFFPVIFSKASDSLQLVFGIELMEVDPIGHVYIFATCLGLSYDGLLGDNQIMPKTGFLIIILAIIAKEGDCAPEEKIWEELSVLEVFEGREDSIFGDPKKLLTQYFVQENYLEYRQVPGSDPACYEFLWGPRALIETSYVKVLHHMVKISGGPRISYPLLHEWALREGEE

| Variant | effect of a mutation on the interaction |
| --- | --- |
| F102C | with no effect |

Variants of: B1
Details: with m3k1_human MAP3K1, Q13233

| Variant | effect of a mutation on the interaction |
| --- | --- |
| F102C | with no effect |

Variants of: B1
Details: with mk10_human MAPK10, P53779
mk10_human MAPK10, P53779, sequence (P53779 whole entry): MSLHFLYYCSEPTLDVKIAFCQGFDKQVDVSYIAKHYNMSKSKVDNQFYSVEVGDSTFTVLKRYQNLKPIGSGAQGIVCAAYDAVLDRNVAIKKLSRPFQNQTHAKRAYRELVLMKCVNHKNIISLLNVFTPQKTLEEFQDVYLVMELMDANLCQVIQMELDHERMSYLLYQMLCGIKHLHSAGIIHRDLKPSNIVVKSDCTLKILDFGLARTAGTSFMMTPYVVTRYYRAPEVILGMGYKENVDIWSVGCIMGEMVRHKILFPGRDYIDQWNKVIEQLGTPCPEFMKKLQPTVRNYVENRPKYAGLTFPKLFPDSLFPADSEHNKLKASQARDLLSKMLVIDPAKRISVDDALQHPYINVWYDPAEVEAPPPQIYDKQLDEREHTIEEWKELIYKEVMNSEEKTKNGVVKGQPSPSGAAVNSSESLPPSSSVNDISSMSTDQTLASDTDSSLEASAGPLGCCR

| Variant | effect of a mutation on the interaction |
| --- | --- |
| F102C | with no effect |

Variants of: B1
Details: with mk14_human MAPK14, Q16539
mk14_human MAPK14, Q16539, sequence (Q16539 whole entry): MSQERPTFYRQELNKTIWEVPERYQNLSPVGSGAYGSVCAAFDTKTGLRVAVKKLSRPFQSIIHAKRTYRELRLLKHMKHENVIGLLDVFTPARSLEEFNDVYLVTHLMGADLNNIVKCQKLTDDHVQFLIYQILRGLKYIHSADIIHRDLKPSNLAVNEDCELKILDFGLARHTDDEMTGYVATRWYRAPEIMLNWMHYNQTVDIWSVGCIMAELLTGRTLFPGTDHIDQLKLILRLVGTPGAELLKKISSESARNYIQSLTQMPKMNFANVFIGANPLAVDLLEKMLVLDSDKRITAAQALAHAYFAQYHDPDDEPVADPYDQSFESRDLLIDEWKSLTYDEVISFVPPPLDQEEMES

| Variant | effect of a mutation on the interaction |
| --- | --- |
| F102C | with no effect |

Variants of: B1
Details: with mk03_human MAPK3, P27361

| Variant | effect of a mutation on the interaction |
| --- | --- |
| F102C | with no effect |

Variants of: B1
Details: with mk04_human MAPK4, P31152
mk04_human MAPK4, P31152, sequence (P31152 whole entry): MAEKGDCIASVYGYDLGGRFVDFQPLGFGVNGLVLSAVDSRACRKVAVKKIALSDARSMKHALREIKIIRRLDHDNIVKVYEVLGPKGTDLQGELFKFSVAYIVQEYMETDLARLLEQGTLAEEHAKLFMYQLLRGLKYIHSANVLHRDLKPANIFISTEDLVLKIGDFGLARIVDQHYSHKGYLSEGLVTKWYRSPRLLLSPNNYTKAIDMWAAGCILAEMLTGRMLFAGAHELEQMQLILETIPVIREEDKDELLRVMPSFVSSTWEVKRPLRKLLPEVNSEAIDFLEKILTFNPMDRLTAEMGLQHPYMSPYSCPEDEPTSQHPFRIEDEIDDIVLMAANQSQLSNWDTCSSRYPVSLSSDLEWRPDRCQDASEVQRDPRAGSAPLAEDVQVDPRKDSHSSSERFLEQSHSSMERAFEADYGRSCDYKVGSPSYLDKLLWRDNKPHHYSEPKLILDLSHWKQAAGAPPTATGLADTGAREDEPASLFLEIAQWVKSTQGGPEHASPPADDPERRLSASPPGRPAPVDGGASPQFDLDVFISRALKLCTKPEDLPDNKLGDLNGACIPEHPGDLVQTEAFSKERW

| Variant | effect of a mutation on the interaction |
| --- | --- |
| F102C | with no effect |

Variants of: B1
Details: with mk06_human MAPK6, Q16659

| Variant | effect of a mutation on the interaction |
| --- | --- |
| F102C | with no effect |

Variants of: B1
Details: with sin1_human MAPKAP1, Q9BPZ7

| Variant | effect of a mutation on the interaction |
| --- | --- |
| F102C | with no effect |

Variants of: B1
Details: with mcl1_human MCL1, Q07820

| Variant | effect of a mutation on the interaction |
| --- | --- |
| F102C | with no effect |

Variants of: B1
Details: with mdm2_human MDM2, Q00987

| Variant | effect of a mutation on the interaction |
| --- | --- |
| F102C | with no effect |

Variants of: B1
Details: with mef2a_human MEF2A

| Variant | effect of a mutation on the interaction |
| --- | --- |
| F102C | with no effect |

Variants of: B1
Details: with mitf_human MITF

| Variant | effect of a mutation on the interaction |
| --- | --- |
| F102C | with no effect |

Variants of: B1
Details: with mtor_human MTOR

| Variant | effect of a mutation on the interaction |
| --- | --- |
| F102C | with no effect |

Variants of: B1
Details: with mybb_human MYBL2, P10244

| Variant | effect of a mutation on the interaction |
| --- | --- |
| F102C | with no effect |

Variants of: B1
Details: with myc_human MYC

| Variant | effect of a mutation on the interaction |
| --- | --- |
| F102C | with no effect |

Variants of: B1
Details: with mycn_human MYCN

| Variant | effect of a mutation on the interaction |
| --- | --- |
| F102C | with no effect |

Variants of: B1
Details: with ncoa3_human NCOA3, Q9Y6Q9

| Variant | effect of a mutation on the interaction |
| --- | --- |
| F102C | with no effect |

Variants of: B1
Details: with ikba_human NFKBIA

| Variant | effect of a mutation on the interaction |
| --- | --- |
| F102C | with no effect |

Variants of: B1
Details: with nox1_human NOX1, Q9Y5S8
nox1_human NOX1, Q9Y5S8, sequence (Q9Y5S8 whole entry): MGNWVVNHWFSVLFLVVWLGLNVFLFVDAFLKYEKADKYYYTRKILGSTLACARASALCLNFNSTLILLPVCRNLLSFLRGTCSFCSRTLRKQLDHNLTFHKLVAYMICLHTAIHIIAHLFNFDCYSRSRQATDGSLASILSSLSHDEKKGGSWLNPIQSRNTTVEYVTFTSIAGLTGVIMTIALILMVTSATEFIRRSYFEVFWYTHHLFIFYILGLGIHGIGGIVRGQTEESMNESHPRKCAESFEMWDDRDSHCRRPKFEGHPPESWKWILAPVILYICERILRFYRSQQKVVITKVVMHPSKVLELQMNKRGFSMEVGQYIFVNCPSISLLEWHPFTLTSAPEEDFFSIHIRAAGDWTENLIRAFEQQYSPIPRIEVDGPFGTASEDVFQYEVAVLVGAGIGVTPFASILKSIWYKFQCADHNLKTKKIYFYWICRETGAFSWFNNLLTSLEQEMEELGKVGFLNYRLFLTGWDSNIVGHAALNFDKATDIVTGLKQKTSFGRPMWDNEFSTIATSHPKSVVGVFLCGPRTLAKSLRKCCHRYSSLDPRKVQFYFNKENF

| Variant | effect of a mutation on the interaction |
| --- | --- |
| F102C | with no effect |

Variants of: B1
Details: with ntrk2_human NTRK2, Q16620

| Variant | effect of a mutation on the interaction |
| --- | --- |
| F102C | with no effect |

Variants of: B1
Details: with ntrk3_human NTRK3, Q16288

| Variant | effect of a mutation on the interaction |
| --- | --- |
| F102C | with no effect |

Variants of: B1
Details: with pak3_human PAK3, O75914

| Variant | effect of a mutation on the interaction |
| --- | --- |
| F102C | with no effect |

Variants of: B1
Details: with prkn_human PRKN

| Variant | effect of a mutation on the interaction |
| --- | --- |
| F102C | with no effect |

Variants of: B1
Details: with pcbp1_human PCBP1, Q15365
pcbp1_human PCBP1, Q15365, sequence (Q15365 whole entry): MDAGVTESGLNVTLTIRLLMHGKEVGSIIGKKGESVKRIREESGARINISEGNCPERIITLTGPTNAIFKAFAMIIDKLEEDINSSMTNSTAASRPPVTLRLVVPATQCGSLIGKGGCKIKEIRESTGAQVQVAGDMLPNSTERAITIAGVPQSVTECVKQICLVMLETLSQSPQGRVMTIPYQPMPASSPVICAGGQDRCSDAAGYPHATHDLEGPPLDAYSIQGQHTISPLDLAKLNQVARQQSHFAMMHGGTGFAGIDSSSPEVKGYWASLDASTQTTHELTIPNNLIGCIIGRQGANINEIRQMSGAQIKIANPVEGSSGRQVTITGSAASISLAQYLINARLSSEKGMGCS

| Variant | effect of a mutation on the interaction |
| --- | --- |
| F102C | with no effect |

Variants of: B1
Details: with pdcd1_human PDCD1, Q15116

| Variant | effect of a mutation on the interaction |
| --- | --- |
| F102C | with no effect |

Variants of: B1
Details: with pgfrb_human PDGFRB

| Variant | effect of a mutation on the interaction |
| --- | --- |
| F102C | with no effect |

Variants of: B1
Details: with pdk1_human PDK1, Q15118

| Variant | effect of a mutation on the interaction |
| --- | --- |
| F102C | with no effect |

Variants of: B1
Details: with PIK3C2B

| Variant | effect of a mutation on the interaction |
| --- | --- |
| F102C | with no effect |

Variants of: B1
Details: with pk3ca_human PIK3CA

| Variant | effect of a mutation on the interaction |
| --- | --- |
| F102C | with no effect |

Variants of: B1
Details: with pk3cb_human PIK3CB

| Variant | effect of a mutation on the interaction |
| --- | --- |
| F102C | with no effect |

Variants of: B1
Details: with pk3cg_human PIK3CG

| Variant | effect of a mutation on the interaction |
| --- | --- |
| F102C | with no effect |

Variants of: B1
Details: with p85b_human PIK3R2, O00459
p85b_human PIK3R2, O00459, sequence (O00459 whole entry): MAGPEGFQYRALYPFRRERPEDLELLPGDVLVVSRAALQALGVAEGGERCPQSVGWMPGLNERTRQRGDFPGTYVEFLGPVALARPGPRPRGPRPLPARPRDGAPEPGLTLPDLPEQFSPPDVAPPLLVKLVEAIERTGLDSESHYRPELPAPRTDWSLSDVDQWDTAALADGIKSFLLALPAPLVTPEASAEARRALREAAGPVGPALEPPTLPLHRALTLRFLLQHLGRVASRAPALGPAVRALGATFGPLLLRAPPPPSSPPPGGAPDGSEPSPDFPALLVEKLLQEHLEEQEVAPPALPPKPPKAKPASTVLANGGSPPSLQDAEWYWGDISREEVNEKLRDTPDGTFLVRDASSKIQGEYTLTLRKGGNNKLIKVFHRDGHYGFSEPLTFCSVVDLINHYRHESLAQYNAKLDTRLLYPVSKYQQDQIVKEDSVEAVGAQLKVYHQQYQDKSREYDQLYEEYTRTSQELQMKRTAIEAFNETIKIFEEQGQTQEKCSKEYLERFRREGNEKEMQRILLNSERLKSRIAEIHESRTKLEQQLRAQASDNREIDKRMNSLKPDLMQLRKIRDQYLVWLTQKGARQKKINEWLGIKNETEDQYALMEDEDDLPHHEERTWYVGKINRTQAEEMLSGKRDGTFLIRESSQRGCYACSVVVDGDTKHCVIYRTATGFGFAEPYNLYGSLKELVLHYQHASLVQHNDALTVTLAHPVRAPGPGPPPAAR

| Variant | effect of a mutation on the interaction |
| --- | --- |
| F102C | with no effect |
